Laboratory results: PMC10279700, “Structural insights into regulation of the PEAK3 pseudokinase scaffold by 14-3-3” (Nature Communications, 2023)

B3: FLAG-tagged full-length human PEAK3 (PEAK3-1xFLAG) (natural protein, UniProt Q6ZS72 1-473, looked up)
chain: MSSPEPPTEPPEPDNPTWSTQPTYSNLGQIRAHLLPSKACRLRTPGSLSTNPEPLPPPLPKKILTRTQSLPTRRTLHPSSIQVQPPRRPFLGSHSVDKSQAAVGPACLPAELTFGPADAPLGLSLRDLHSPEAVHTALAARQLQGLRTIYARLRARLMGGHPGPCHPGHSFRLLDSSPCAESGDALYYRVVRAHEDAWHILVAKVPKPGADVPHPWGLELQASLSPHFNLQGLCGLVPEGTLPGAPWRGAVALAAEVPERTVAQWLAEACTQPPEEFVWAVALLLLQLSAALKFLEAWGAALVELRPENLLLVAPRGCATTGPPRLLLTDFGRVCLQPPGPPGSPGPHAPQLGSLLRALLSLAAPSTTPLAAGLELLAAQLTRLRPSASRTRGALQALLWGPGPELRGRGAPLGPWLRALGPWLRVRRGLLVLRLAERAAGGEAPSLEDWLCCEYLAEATESSMGQALALLWD
modifications: phosphoserine at 69
notes: PEAK3 pseudokinase (C19orf35), human, gene synthesized by GenScript; residues modelled: chain A 128-406, 419-473; chain B 130-406, 415-472; N-terminal peptides chain E 66-73 and chain P 66-72; Purifies as a homodimer, alone or in complex with an endogenous 14-3-3 heterodimer; also called C19orf35; PEAK3 homodimer; source: Expi293F, transfected, purified (G1 Flag resin, FLAG peptide elution, …)

Experiments:
[1] = molecular target: FLAG-tagged PEAK3 R147A (human) (UniProt Q6ZS72); assay: co-IP; FLAG-tagged PEAK3 variants transiently expressed in HEK293; anti-FLAG/protein A beads overnight at 4 °C; endogenous 14-3-3 detected with anti-pan 14-3-3 by Western blot; also after 1 h of 0.1% DMSO or PKD inhibitors CRT0066101 or CID755673 (dose-dependent decrease, not abolished)
[2] = molecular target: T1, endogenous 14-3-3, P62258; assay: co-immunoprecipitation, quantified Western blot; details: chain shown with the change; transiently expressed in HEK293 cells; 3 independent experiments; parent: est. 100; read off a plot
T1 chain: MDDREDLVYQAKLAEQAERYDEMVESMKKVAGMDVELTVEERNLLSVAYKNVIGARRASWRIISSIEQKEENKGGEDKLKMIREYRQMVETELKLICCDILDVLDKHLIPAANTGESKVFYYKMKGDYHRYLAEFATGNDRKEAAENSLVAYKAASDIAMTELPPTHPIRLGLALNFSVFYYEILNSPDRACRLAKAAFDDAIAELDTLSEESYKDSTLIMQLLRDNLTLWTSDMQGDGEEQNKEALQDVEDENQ

[3] = molecular target: the molecule itself; assay: cryo-EM structure; PEAK3/14-3-3 complex co-purified from Expi293F (FLAG affinity, SEC), 7 uM, 0.1% n-Octyl-β-D-glucoside; 169,563 particles, C1, 3.1 Å
[4] = molecular target: B3; assay: as above; details: both partners purified

## endogenous 14-3-3 (from UniProt P62258 1-255) (FLAG-tagged variant transiently expressed in HEK293)
[1]
  reduction in 14-3-3 association relative to WT PEAK3: 75%

B1: FLAG-tagged WT PEAK3, Q6ZS72 S69A (protein)
chain: MSSPEPPTEPPEPDNPTWSTQPTYSNLGQIRAHLLPSKACRLRTPGSLSTNPEPLPPPLPKKILTRTQALPTRRTLHPSSIQVQPPRRPFLGSHSVDKSQAAVGPACLPAELTFGPADAPLGLSLRDLHSPEAVHTALAARQLQGLRTIYARLRARLMGGHPGPCHPGHSFRLLDSSPCAESGDALYYRVVRAHEDAWHILVAKVPKPGADVPHPWGLELQASLSPHFNLQGLCGLVPEGTLPGAPWRGAVALAAEVPERTVAQWLAEACTQPPEEFVWAVALLLLQLSAALKFLEAWGAALVELRPENLLLVAPRGCATTGPPRLLLTDFGRVCLQPPGPPGSPGPHAPQLGSLLRALLSLAAPSTTPLAAGLELLAAQLTRLRPSASRTRGALQALLWGPGPELRGRGAPLGPWLRALGPWLRVRRGLLVLRLAERAAGGEAPSLEDWLCCEYLAEATESSMGQALALLWD
[2]
  percent of parent: 0

B2: FLAG-tagged WT PEAK3, Q6ZS72 K293A; W298A (protein)
chain: MSSPEPPTEPPEPDNPTWSTQPTYSNLGQIRAHLLPSKACRLRTPGSLSTNPEPLPPPLPKKILTRTQSLPTRRTLHPSSIQVQPPRRPFLGSHSVDKSQAAVGPACLPAELTFGPADAPLGLSLRDLHSPEAVHTALAARQLQGLRTIYARLRARLMGGHPGPCHPGHSFRLLDSSPCAESGDALYYRVVRAHEDAWHILVAKVPKPGADVPHPWGLELQASLSPHFNLQGLCGLVPEGTLPGAPWRGAVALAAEVPERTVAQWLAEACTQPPEEFVWAVALLLLQLSAALAFLEAAGAALVELRPENLLLVAPRGCATTGPPRLLLTDFGRVCLQPPGPPGSPGPHAPQLGSLLRALLSLAAPSTTPLAAGLELLAAQLTRLRPSASRTRGALQALLWGPGPELRGRGAPLGPWLRALGPWLRVRRGLLVLRLAERAAGGEAPSLEDWLCCEYLAEATESSMGQALALLWD
[2]
  percent of parent: 43

## B3
[3]
  stoichiometry N: 2

B4: FLAG-tagged WT PEAK3, Q6ZS72 W298A (protein)
chain: MSSPEPPTEPPEPDNPTWSTQPTYSNLGQIRAHLLPSKACRLRTPGSLSTNPEPLPPPLPKKILTRTQSLPTRRTLHPSSIQVQPPRRPFLGSHSVDKSQAAVGPACLPAELTFGPADAPLGLSLRDLHSPEAVHTALAARQLQGLRTIYARLRARLMGGHPGPCHPGHSFRLLDSSPCAESGDALYYRVVRAHEDAWHILVAKVPKPGADVPHPWGLELQASLSPHFNLQGLCGLVPEGTLPGAPWRGAVALAAEVPERTVAQWLAEACTQPPEEFVWAVALLLLQLSAALKFLEAAGAALVELRPENLLLVAPRGCATTGPPRLLLTDFGRVCLQPPGPPGSPGPHAPQLGSLLRALLSLAAPSTTPLAAGLELLAAQLTRLRPSASRTRGALQALLWGPGPELRGRGAPLGPWLRALGPWLRVRRGLLVLRLAERAAGGEAPSLEDWLCCEYLAEATESSMGQALALLWD
[2]
  percent of parent: 57

B5: FLAG-tagged WT PEAK3, Q6ZS72 K293A (protein)
chain: MSSPEPPTEPPEPDNPTWSTQPTYSNLGQIRAHLLPSKACRLRTPGSLSTNPEPLPPPLPKKILTRTQSLPTRRTLHPSSIQVQPPRRPFLGSHSVDKSQAAVGPACLPAELTFGPADAPLGLSLRDLHSPEAVHTALAARQLQGLRTIYARLRARLMGGHPGPCHPGHSFRLLDSSPCAESGDALYYRVVRAHEDAWHILVAKVPKPGADVPHPWGLELQASLSPHFNLQGLCGLVPEGTLPGAPWRGAVALAAEVPERTVAQWLAEACTQPPEEFVWAVALLLLQLSAALAFLEAWGAALVELRPENLLLVAPRGCATTGPPRLLLTDFGRVCLQPPGPPGSPGPHAPQLGSLLRALLSLAAPSTTPLAAGLELLAAQLTRLRPSASRTRGALQALLWGPGPELRGRGAPLGPWLRALGPWLRVRRGLLVLRLAERAAGGEAPSLEDWLCCEYLAEATESSMGQALALLWD
[2]
  percent of parent: 62

B6: FLAG-tagged WT PEAK3, Q6ZS72 S225A (protein)
chain: MSSPEPPTEPPEPDNPTWSTQPTYSNLGQIRAHLLPSKACRLRTPGSLSTNPEPLPPPLPKKILTRTQSLPTRRTLHPSSIQVQPPRRPFLGSHSVDKSQAAVGPACLPAELTFGPADAPLGLSLRDLHSPEAVHTALAARQLQGLRTIYARLRARLMGGHPGPCHPGHSFRLLDSSPCAESGDALYYRVVRAHEDAWHILVAKVPKPGADVPHPWGLELQASLAPHFNLQGLCGLVPEGTLPGAPWRGAVALAAEVPERTVAQWLAEACTQPPEEFVWAVALLLLQLSAALKFLEAWGAALVELRPENLLLVAPRGCATTGPPRLLLTDFGRVCLQPPGPPGSPGPHAPQLGSLLRALLSLAAPSTTPLAAGLELLAAQLTRLRPSASRTRGALQALLWGPGPELRGRGAPLGPWLRALGPWLRVRRGLLVLRLAERAAGGEAPSLEDWLCCEYLAEATESSMGQALALLWD
[2]
  percent of parent: 82

B7: 14-3-3β (natural protein, human (endogenous in Expi293F), UniProt P31946 1-246, looked up)
chain: MTMDKSELVQKAKLAEQAERYDDMAAAMKAVTEQGHELSNEERNLLSVAYKNVVGARRSSWRVISSIEQKTERNEKKQQMGKEYREKIEAELQDICNDVLELLDKYLIPNATQPESKVFYLKMKGDYFRYLSEVASGDNKQTTVSNSQQAYQEAFEISKKEMQPTHPIRLGLALNFSVFYYEILNSPEKACSLAKTAFDEAIAELDTLNEESYKDSTLIMQLLRDNLTLWTSENQGDEGDAGEGEN
notes: 14-3-3 protein beta, human; residues 3-232 modelled in the cryo-EM structure; also called 14-3-3 beta; β isoform; source: endogenous, Expi293F, co-purified with PEAK3-1xFLAG
[4]
  binding result: binds
